According to patent publication US12383631:

Key:
[1] = target: T1, IL-18 receptor (IL-18Rα/IL-18Rβ) on cells (HEK-Blue IL18R reporter cells, NK-92, KG-1) (human) (UniProt Q13478); experiment: cell-based or functional assay
T1 sequence (looked up) 1: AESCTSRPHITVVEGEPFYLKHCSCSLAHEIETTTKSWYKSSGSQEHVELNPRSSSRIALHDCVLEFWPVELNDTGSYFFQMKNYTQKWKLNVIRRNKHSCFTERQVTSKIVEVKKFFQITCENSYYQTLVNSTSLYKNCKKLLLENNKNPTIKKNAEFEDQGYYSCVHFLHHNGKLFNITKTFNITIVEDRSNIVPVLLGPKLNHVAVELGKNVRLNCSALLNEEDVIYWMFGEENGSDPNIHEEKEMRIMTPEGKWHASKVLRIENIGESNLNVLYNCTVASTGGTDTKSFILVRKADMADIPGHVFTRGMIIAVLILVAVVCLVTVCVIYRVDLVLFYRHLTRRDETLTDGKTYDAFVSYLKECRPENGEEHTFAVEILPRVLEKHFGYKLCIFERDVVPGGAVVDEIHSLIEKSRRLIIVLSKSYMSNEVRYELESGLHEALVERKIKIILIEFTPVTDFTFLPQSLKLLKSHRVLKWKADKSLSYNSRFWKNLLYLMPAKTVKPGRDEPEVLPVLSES
T1 sequence (looked up) 2: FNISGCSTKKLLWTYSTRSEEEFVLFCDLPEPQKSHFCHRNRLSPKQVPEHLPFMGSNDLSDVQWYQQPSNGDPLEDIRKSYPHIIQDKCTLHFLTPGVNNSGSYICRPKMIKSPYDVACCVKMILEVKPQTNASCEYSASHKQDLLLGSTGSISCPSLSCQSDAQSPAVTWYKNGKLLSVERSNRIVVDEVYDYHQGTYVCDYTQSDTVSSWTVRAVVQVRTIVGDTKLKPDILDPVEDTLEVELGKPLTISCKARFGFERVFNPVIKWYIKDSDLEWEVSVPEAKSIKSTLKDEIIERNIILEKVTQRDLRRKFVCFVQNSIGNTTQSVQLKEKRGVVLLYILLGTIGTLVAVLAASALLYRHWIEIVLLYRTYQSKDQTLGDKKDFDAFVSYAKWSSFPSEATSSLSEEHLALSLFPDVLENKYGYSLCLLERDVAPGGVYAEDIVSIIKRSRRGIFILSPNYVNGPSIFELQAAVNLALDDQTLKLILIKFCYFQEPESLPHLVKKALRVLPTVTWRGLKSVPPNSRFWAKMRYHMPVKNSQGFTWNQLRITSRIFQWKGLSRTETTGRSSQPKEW

[2] = target: T2, human IL-18BP-His (human), O95998; experiment: AlphaLISA of free IL-18BP; details: remark: other sources report otherwise
T2 chain: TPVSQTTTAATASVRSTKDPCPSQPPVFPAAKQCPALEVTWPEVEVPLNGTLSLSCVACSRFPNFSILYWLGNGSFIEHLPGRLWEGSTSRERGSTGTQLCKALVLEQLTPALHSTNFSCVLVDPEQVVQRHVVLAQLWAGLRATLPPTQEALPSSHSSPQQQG

B1: Composition F (Trastuzumab/Herceptin conjugated to IL-18 polypeptide of SEQ ID NO: 60) (protein, part only; not given: trastuzumab heavy and light chains, part only)
chain: YFGKLKSKLSVIRNLNDQVLFIDQGNRPLFEDMTDSDQRDNAPRTIFIISMYADSQPRGMAVTISVKCEKISTLSCENKIISFKEMNPPDNIKDTKSDIIFFQRSVPGHDNKMQFESSSYEGYFLACEKERDLFKLILKKEDELGDRSIMFTVQNED
modifications: chemical linker to the antibody; site not stated
With B1 the EC50, IFNγ secretion, NK92 cells [1] was 0.064 nM.

B2: IL-18 polypeptide of SEQ ID NO: 35 (Y01G, F02A, E06K, M51G, K53A, D54A, S55A, T63A), Q14116 37-193 (ligand)
chain: GAGKLKSKLSVIRNLNDQVLFIDQGNRPLFEDMTDSDCRDNAPRTIFIISGYAAAQPRGMAVAISVKCEKISTLSCENKIISFKEMNPPDNIKDTKSDIIFFQRSVPGHDNKMQFESSSYEGYFLACEKERDLFKLILKKEDELGDRSIMFTVQNED
With B2 the Kd [2] was 969 nM.
